Laboratory results: patent US20180155413A1 (AstraZeneca / MedImmune, published 2018)
Read-outs that look alike come from different tables or passages of the source.

Assays:
Experiment in all cases: cell-based or functional assay
[1] = biological target: HA of A/Wilson Smith N/33 (H1N1) (influenza A virus, UniProt P03454 18-565)
[2] = biological target: HA of A/Beijing/262/95 (H1N1) (influenza A virus)
[3] = biological target: HA of A/Solomon Island/3/2006 (H1N1) (influenza A virus)
[4] = biological target: HA of A/California/07/2009 (H1N1) (influenza A virus)
[5] = biological target: HA of A/Hong Kong/8/68 (H3N2) (influenza A virus)
[6] = biological target: HA of A/Victoria/3/75 (H3N2) (influenza A virus)
[7] = biological target: HA of A/Shan dong/9/93 (H3N2) (influenza A virus)
[8] = biological target: HA of ca A/Panama/2007/99 (H3N2) (influenza A virus)
[9] = biological target: HA of ca B/Beijing/243/97 (victoria) (influenza B virus)
[10] = biological target: HA of B/Hong Kong/330/2001 (victoria) (influenza B virus)
[11] = biological target: HA of B/Malaysia/2506/2004 (victoria) (influenza B virus)
[12] = biological target: HA of B/Ohio/1/2005 (victoria) (influenza B virus)
[13] = biological target: HA of B/Yamanashi/166/98 (yamagata) (influenza B virus)
[14] = biological target: HA of B/Sichuan/379/99 (yamagata) (influenza B virus)
[15] = biological target: HA of B/Florida/4/2006 (yamagata) (influenza B virus)
[16] = biological target: HA of A/Puerto Rico/8/34 (H1N1) (influenza A virus, UniProt P03452 18-565)
Sequence of HA of A/Puerto Rico/8/34 (H1N1) (P03452 18-565 limits assumed): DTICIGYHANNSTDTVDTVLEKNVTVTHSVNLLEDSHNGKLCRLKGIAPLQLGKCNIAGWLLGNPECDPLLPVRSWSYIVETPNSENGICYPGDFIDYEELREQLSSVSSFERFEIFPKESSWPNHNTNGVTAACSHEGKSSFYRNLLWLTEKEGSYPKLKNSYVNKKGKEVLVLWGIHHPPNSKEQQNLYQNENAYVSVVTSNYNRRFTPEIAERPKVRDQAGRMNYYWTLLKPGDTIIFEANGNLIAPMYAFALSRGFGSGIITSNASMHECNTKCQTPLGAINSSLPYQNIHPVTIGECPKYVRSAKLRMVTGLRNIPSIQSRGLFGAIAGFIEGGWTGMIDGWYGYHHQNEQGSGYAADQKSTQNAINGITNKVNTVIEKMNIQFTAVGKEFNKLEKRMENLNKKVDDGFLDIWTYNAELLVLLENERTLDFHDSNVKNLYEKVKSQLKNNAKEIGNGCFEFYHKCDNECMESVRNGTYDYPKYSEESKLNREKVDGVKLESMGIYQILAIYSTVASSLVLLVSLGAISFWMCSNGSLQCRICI

[17] = biological target: HA of A/Fort Monmouth/1/47 (H1N1) (influenza A virus)
[18] = biological target: HA of A/Beijing/262/95 (H1N1) (influenza A virus); remark: listed apart in the source
[19] = biological target: HA of ca A/New Caledonia/20/99 (H1N1) (influenza A virus)
[20] = biological target: HA of A/Solomon Island/3/2006 (H1N1) (influenza A virus); remark: listed apart in the source
[21] = biological target: HA of ca A/South Dakota/6/2007 (H1N1) (influenza A virus)
[22] = biological target: HA of A/Brisbane/10/2010 (H1N1) (influenza A virus)
[23] = biological target: HA of A/New Hampshire/04/2010 (H1N1) (influenza A virus)
[24] = biological target: HA of A/Washington/24/2012 (H1N1) (influenza A virus)
[25] = biological target: HA of A/Bolivia/559/2013 (H1N1) (influenza A virus)
[26] = biological target: HA of ca A/mallard/Alberta/89/85 (H6N2) (influenza A virus)
[27] = biological target: HA of A/Hong Kong/8/68 (H3N2) (influenza A virus); remark: listed apart in the source
[28] = biological target: HA of A/Victoria/3/75 (H3N2) (influenza A virus); remark: listed apart in the source
[29] = biological target: HA of A/Shan dong/9/93 (H3N2) (influenza A virus); remark: listed apart in the source
[30] = biological target: HA of ca A/Wuhan/359/95 (H3N2) (influenza A virus)
[31] = biological target: HA of A/California/7/2004 (H3N2) (influenza A virus)
[32] = biological target: HA of A/Wisconsin/67/2005 (H3N2) (influenza A virus)
[33] = biological target: HA of A/Victoria/361/2011 (H3N2) (influenza A virus)
[34] = biological target: HA of A/Berlin/93/2011 (H3N2) (influenza A virus)
[35] = biological target: HA of A/Texas/50/2012 (H3N2) (influenza A virus)
[36] = biological target: HA of A/AmericanSomoa/4786/2013 (H3N2) (influenza A virus)
[37] = biological target: HA of A/Switzerland/9715293/2013 (H3N2) (influenza A virus)
[38] = biological target: HA of A/Palau/6759/2014 (H3N2) (influenza A virus)
[39] = biological target: HA of A/New Caledonia/71/2014 (H3N2) (influenza A virus)
[40] = biological target: HA of A/Minnesota/11/2010 (H3N2v) (influenza A virus)
[41] = biological target: HA of ca A/Brit. Columbia/CN-6/04 (H7N3-LP) (influenza A virus)

Sequence of HA of A/Wilson Smith N/33 (H1N1) (P03454 18-565 limits assumed): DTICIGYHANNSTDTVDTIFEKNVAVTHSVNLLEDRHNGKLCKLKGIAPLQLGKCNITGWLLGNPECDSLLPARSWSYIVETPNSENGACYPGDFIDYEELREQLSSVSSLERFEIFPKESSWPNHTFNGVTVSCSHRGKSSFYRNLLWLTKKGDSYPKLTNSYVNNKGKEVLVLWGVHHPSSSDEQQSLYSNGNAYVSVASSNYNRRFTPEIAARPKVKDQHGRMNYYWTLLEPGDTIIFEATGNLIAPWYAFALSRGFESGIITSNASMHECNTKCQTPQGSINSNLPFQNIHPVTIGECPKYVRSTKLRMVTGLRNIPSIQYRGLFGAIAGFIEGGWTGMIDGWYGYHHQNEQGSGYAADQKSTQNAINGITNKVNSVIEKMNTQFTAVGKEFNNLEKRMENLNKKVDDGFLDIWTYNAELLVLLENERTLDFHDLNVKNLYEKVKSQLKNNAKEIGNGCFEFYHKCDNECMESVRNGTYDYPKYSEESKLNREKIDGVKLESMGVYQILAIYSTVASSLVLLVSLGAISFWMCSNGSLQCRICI

B1: GL20/39 BiS4 100/44 (bispecific antibody)
light: DIQMTQSPSSLSASVGDRVTITCRTSQSLSSYTHWYQQKPGKAPKLLIYAASSRGSGVPSRFSGSGSGTDFTLTISSLQPEDFATYYCQQSRTFGQGTKVEIKRTVAAPSVFIFPPSDEQLKSGTASVVCLLNNFYPREAKVQWKVDNALQSGNSQESVTEQDSKDSTYSLSSTLTLSKADYEKHKVYACEVTHQGLSSPVTKSFNRGEC
heavy: not shown
B1 was tested, and the “Neutralization (IC50)” value [1] was 16.3 nM, the “Neutralization (IC50)” value [2] was 11.9 nM and the “Neutralization (IC50)” value [3] was 4.7 nM. The “Neutralization (IC50)” value [4] was 20.6 nM, the “Neutralization (IC50)” value [5] was 6 nM and the “Neutralization (IC50)” value [6] was 15.9 nM. The “Neutralization (IC50)” value [7] was 30.3 nM, the “Neutralization (IC50)” value [8] was 37.3 nM and the “Neutralization (IC50)” value [9] was 44.3 nM. The “Neutralization (IC50)” value [10] was 75.8 nM, the “Neutralization (IC50)” value [11] was 25.8 nM and the “Neutralization (IC50)” value [12] was 16.5 nM. For the same binder, the “Neutralization (IC50)” value [13] was 1.2 nM, the “Neutralization (IC50)” value [14] was 7.8 nM and the “Neutralization (IC50)” value [15] was 3.6 nM. The “Neutralization (IC50)” value [16] was 18.6 nM, the “Neutralization (IC50)” value [17] was 5.2 nM and the “Neutralization (IC50)” value [18] was 10.6 nM. For the same binder, the “Neutralization (IC50)” value [19] was 6.2 nM, the “Neutralization (IC50)” value [20] was 4.4 nM and the “Neutralization (IC50)” value [21] was 6.8 nM. The “Neutralization (IC50)” value [22] was 9.8 nM, the “Neutralization (IC50)” value [23] was 0.4 nM and the “Neutralization (IC50)” value [24] was 2.1 nM. For the same binder, the “Neutralization (IC50)” value [25] was 0.9 nM, the “Neutralization (IC50)” value [26] was 6.5 nM and the “Neutralization (IC50)” value [27] was 3.3 nM. The “Neutralization (IC50)” value [28] was 5.2 nM, the “Neutralization (IC50)” value [29] was 18.3 nM and the “Neutralization (IC50)” value [30] was 16.7 nM. For the same binder, the “Neutralization (IC50)” value [31] was 10.5 nM, the “Neutralization (IC50)” value [32] was 10.3 nM and the “Neutralization (IC50)” value [33] was 5.2 nM. The “Neutralization (IC50)” value [34] was 1.1 nM, the “Neutralization (IC50)” value [35] was 3.1 nM and the “Neutralization (IC50)” value [36] was 0.8 nM. The “Neutralization (IC50)” value [37] was 0.9 nM, the “Neutralization (IC50)” value [38] was 4.6 nM and the “Neutralization (IC50)” value [39] was 0.8 nM. The “Neutralization (IC50)” value [40] was 17.1 nM and the “Neutralization (IC50)” value [41] was 18.3 nM.

B2: GL20 IgG (antibody, V domains shown)
VH: QVQLQQSGPGLVKPSQTLSLTCAISGDSVSSYNAVWNWIRQSPSRGLEWLGRTYYRSGWYNDYAESVKSRITINPDTSKNQFSLQLNSVTPEDTAVYYCARSGHITVFGVNVDAFDMWGQGTMVTVSS
VL: DIQMTQSPSSLSASVGDRVTITCRTSQSLSSYTHWYQQKPGKAPKLLIYAASSRGSGVPSRFSGSGSGTDFTLTISSLQPEDFATYYCQQSRTFGQGTKVEIK
With B2 the “Neutralization (IC50)” value [1] was 13 nM, the “Neutralization (IC50)” value [2] was 8.3 nM and the “Neutralization (IC50)” value [3] was 4.4 nM. For the same binder, the “Neutralization (IC50)” value [4] was 18.6 nM, the “Neutralization (IC50)” value [5] was 7 nM and the “Neutralization (IC50)” value [6] was 12.9 nM. The “Neutralization (IC50)” value [7] was 19.2 nM, the “Neutralization (IC50)” value [8] was 46.9 nM and the “Neutralization (IC50)” value [9] was greater than 1000 nM. For the same binder, the “Neutralization (IC50)” value [10] was greater than 1000 nM, the “Neutralization (IC50)” value [11] was greater than 1000 nM and the “Neutralization (IC50)” value [12] was greater than 1000 nM. The “Neutralization (IC50)” value [13] was greater than 1000 nM, the “Neutralization (IC50)” value [14] was greater than 1000 nM and the “Neutralization (IC50)” value [15] was greater than 1000 nM. The “Neutralization (IC50)” value [16] was 10 nM, the “Neutralization (IC50)” value [17] was 6.1 nM and the “Neutralization (IC50)” value [18] was 10.8 nM. For the same binder, the “Neutralization (IC50)” value [19] was 4.2 nM, the “Neutralization (IC50)” value [20] was 4.3 nM and the “Neutralization (IC50)” value [21] was 10.8 nM. For the same binder, the “Neutralization (IC50)” value [22] was 10.5 nM, the “Neutralization (IC50)” value [23] was 0.4 nM and the “Neutralization (IC50)” value [24] was 1.4 nM. The “Neutralization (IC50)” value [25] was 0.9 nM, the “Neutralization (IC50)” value [26] was 4.8 nM and the “Neutralization (IC50)” value [27] was 3 nM. For the same binder, the “Neutralization (IC50)” value [28] was 3 nM, the “Neutralization (IC50)” value [29] was 21.8 nM and the “Neutralization (IC50)” value [30] was 16.3 nM. For the same binder, the “Neutralization (IC50)” value [31] was 14.2 nM, the “Neutralization (IC50)” value [32] was 10.7 nM and the “Neutralization (IC50)” value [33] was 5.7 nM. For the same binder, the “Neutralization (IC50)” value [34] was 1.1 nM, the “Neutralization (IC50)” value [35] was 4.8 nM and the “Neutralization (IC50)” value [36] was 0.9 nM. The “Neutralization (IC50)” value [37] was 0.3 nM, the “Neutralization (IC50)” value [38] was 6.8 nM and the “Neutralization (IC50)” value [39] was 1 nM. The “Neutralization (IC50)” value [40] was 11.1 nM and the “Neutralization (IC50)” value [41] was 7.4 nM.
